# The supplement of paper PMC9732359
# ± gives the uncertainty stated by the source.
# Experiment: protein stability index of a GFP-peptide fusion (yeast GPS) (PSI 1-4); higher = more stable; sorted into four equal gates, so the index is relative within each strain
# In short: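 Tiled 17-residue peptides from yeast proteins were fused downstream of GFP on a plasmid that also expresses Cherry, and the pooled library was carried in yeast. Mid-log cultures grown in leucine-free medium were sorted into four equal gates by GFP/Cherry fluorescence ratio. Plasmids from each gate were PCR-amplified and Illumina-sequenced, and reads were assigned to strains by barcodes. Each peptide's protein stability index is the sum, over gates, of the gate's read frequency multiplied by its gate number.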
Sequence,protein stability index (doa10∆),protein stability index (pdr5∆),protein stability index (san1∆),protein stability index (ubr1∆)
LEQFMERNNIGEICKNY [YDL116W/NUP84],2.69 ± 0.11,2.6 ± 0.076,2.72 ± 0.14,2.44 ± 0.069
LEQMELSILKGDYSQAT [RPN5],2.86 ± 0.079,2.91 ± 0.068,2.94 ± 0.11,2.64 ± 0.062
LESWWLVLGEVSKKELY [BRR2],1.68 ± 0.16,1.39 ± 0.14,1.11 ± 0.17,–
LFGAKPQNTTATTGGLF [YGR119C/NUP57],2.7 ± 0.084,3.06 ± 0.076,2.97 ± 0.12,2.59 ± 0.089
LFGMCESLYEPNLEPED [PUP3],2.77 ± 0.19,3.53 ± 0.2,3.32 ± 0.081,3.27 ± 0.1
LFHFEEDEGEELTDEYL [PRP8],3.52 ± 0.14,3.01 ± 0.09,3.44 ± 0.06,3 ± 0.12
LFKALKVILNERGGKFH [RGR1],2.44 ± 0.075,2.64 ± 0.068,2.17 ± 0.094,2.64 ± 0.059
LFKKFNNDFKLSIDKVL [RET1],1.66 ± 0.12,1.8 ± 0.11,2.15 ± 0.15,2.67 ± 0.093
LFKRDCNQMENLLESIT [YCS4],–,2.17 ± 0.12,–,2.38 ± 0.22
LFLIIQCYKIYDLVILK [YMR129W/POM152],1.29 ± 0.063,1.2 ± 0.045,1.16 ± 0.085,1.16 ± 0.044
LFLRGDSVIVVLKTPVE [SMD2],2.63 ± 0.12,2.42 ± 0.093,2.78 ± 0.083,2.38 ± 0.14
LFPEQQTKEIKTERVED [RPL6B],3.55 ± 0.074,3.29 ± 0.079,3.46 ± 0.061,3.38 ± 0.063
LFSSRRLQAKRLKDVEW [RMP1],2.62 ± 0.084,2.79 ± 0.059,3.1 ± 0.079,1.68 ± 0.065
LGGPITKESQPTIEEDL [FAS2],3.02 ± 0.21,3.19 ± 0.15,2.77 ± 0.18,2.96 ± 0.069
LGILKKKRFDEFMAGFN [SMC4],2.15 ± 0.11,2.15 ± 0.13,1.88 ± 0.19,1.87 ± 0.078
LGKAQNWAKFTATASLG [RPN2],2.55 ± 0.059,2.56 ± 0.059,2.18 ± 0.069,2.28 ± 0.065
LGKKKNVKEEETVAKSK [RPS8A],3.22 ± 0.052,3.31 ± 0.05,3.335 ± 0.031,3.25 ± 0.039
LGKTIQTISLLTYLYEM [SNF2],1.72 ± 0.093,2.5 ± 0.087,2.47 ± 0.081,2.38 ± 0.076
LGLAKSVHHARVLITQR [RPS9A],2.34 ± 0.12,2.86 ± 0.15,2.61 ± 0.17,–
LGLFIHKISFSGTKSEV [YJL039C/NUP192],1.86 ± 0.072,2.14 ± 0.055,1.88 ± 0.085,2.12 ± 0.052
LGNIASSFYINHASMDV [BRR2],2.84 ± 0.12,2.67 ± 0.12,2.88 ± 0.1,3.27 ± 0.15
LGPLFKKIVDDTIMENP [IRR1],2.62 ± 0.071,2.88 ± 0.066,2.44 ± 0.13,2.82 ± 0.063
LGQERATDLAGPANNPN [PRP8],2.94 ± 0.048,3.04 ± 0.068,2.95 ± 0.053,3.17 ± 0.057
LGQYVQAHTLYNSVRPF [PRE10],2.74 ± 0.1,2.87 ± 0.099,2.78 ± 0.11,2.65 ± 0.053
LGSGSLAAMAVLESHWK [PUP1],3.24 ± 0.16,3.27 ± 0.14,2.64 ± 0.2,3.69 ± 0.18
LGSLTVEDYLSSVTSDS [RPC82],2.95 ± 0.11,3.02 ± 0.076,2.19 ± 0.22,3.2 ± 0.074

Sequence,protein stability index (doa10∆),protein stability index (pdr5∆),protein stability index (san1∆),protein stability index (ubr1∆)
LGSQSKSDEGGSYLCTS [YOR098C/NUP1],3.26 ± 0.11,2.98 ± 0.07,3.14 ± 0.069,2.71 ± 0.081
LGSSEAENLLQLKTGLA [YGL172W/NUP49],–,3.29 ± 0.18,2.98 ± 0.085,2.5 ± 0.2
LGVTYSSPTLATGFGAH [PRE4],2.41 ± 0.078,2.29 ± 0.12,2.48 ± 0.087,1.62 ± 0.12
LGYTHIAINFTVNHSEK [RPP1],1.35 ± 0.038,1.25 ± 0.036,1.56 ± 0.062,1.41 ± 0.042
LHCCIQLLMGDIPELSF [RPN3],1.71 ± 0.048,1.73 ± 0.052,1.78 ± 0.065,1.71 ± 0.042
LHDTQIEGKLHMATALQ [RPN10],2.48 ± 0.22,2.37 ± 0.2,–,2.38 ± 0.23
LHEKYLTEGGSILEEKI [SMC1],3.02 ± 0.077,3.24 ± 0.1,3.01 ± 0.061,3.19 ± 0.094
LHNFESVAPTKQREIVK [NUT1],2.71 ± 0.084,2.55 ± 0.065,2.7 ± 0.053,2.6 ± 0.044
LHNIWSNGLLSIVLLLL [YML103C/NUP188],1.38 ± 0.069,1.34 ± 0.059,1.5 ± 0.14,1.54 ± 0.12
LHNLNEYQIVYYNPQAG [RGR1],1.41 ± 0.27,2.44 ± 0.15,2.1 ± 0.11,–
LHYLKKFKHIDDKYGRK [SRP72],2.91 ± 0.061,2.88 ± 0.057,3.07 ± 0.055,2.85 ± 0.041
LIERYYPKLTLDFQTNK [RPS17A],3.12 ± 0.074,3.01 ± 0.061,3.02 ± 0.045,2.74 ± 0.053
LIIDDPSKGQSLSKISQ [RPP1],2.77 ± 0.07,2.81 ± 0.063,3.04 ± 0.055,3.02 ± 0.056
LIIDGQIIFGVVEKKTV [RPO21],1.37 ± 0.087,1.38 ± 0.065,1.2 ± 0.2,1.54 ± 0.07
LIIIEKKQKLIEEQDKK [ITC1],3.12 ± 0.13,2.9 ± 0.21,2.96 ± 0.17,2.89 ± 0.084
LIIQKIPSLQNNIEENL [ECM29],2.91 ± 0.067,2.88 ± 0.066,2.66 ± 0.065,2.98 ± 0.071
LILGLNTSIAQFDIQSP [YML103C/NUP188],1.94 ± 0.044,1.81 ± 0.045,2.29 ± 0.071,2.6 ± 0.044
LINGHRAPQQSVLQLFQ [SMC2],3 ± 0.095,2.48 ± 0.069,2.5 ± 0.063,2.42 ± 0.051
LIPEDKRDQYLKSASKE [RPL28],–,3.1 ± 0.19,1.95 ± 0.18,3.36 ± 0.098
LIPFIVKQVLLSVEIGV [NUT1],1.57 ± 0.031,1.6 ± 0.031,1.56 ± 0.059,1.74 ± 0.036
LIRNVGTNTYRLGEWSK [POP1],1.9 ± 0.28,1.29 ± 0.22,1.12 ± 0.28,–
LISDQLLEFFELVFSKG [YML103C/NUP188],2.57 ± 0.077,2.71 ± 0.11,3.1 ± 0.066,2.9 ± 0.057
LITVMEKSPDPTIRSNA [YCS4],2.35 ± 0.052,2.48 ± 0.051,2.34 ± 0.053,2.57 ± 0.038
LIYVNPFMLQWGIPLIK [FAS1],1.45 ± 0.082,1.4 ± 0.099,1.13 ± 0.14,1.65 ± 0.064
LKAVTVEAGMIALRNGQ [RPT5],3.1 ± 0.23,2.9 ± 0.16,2.51 ± 0.17,–
LKDLNLTVSIKIALMNI [RGR1],1.34 ± 0.062,1.66 ± 0.066,1.73 ± 0.077,1.21 ± 0.06
